In article doi:10.1101/816322 (bioRxiv, 2019):

T1: Flag-tagged Trichoplax adhaerens Bcl-2-like protein 1 (trBcl-2L1) (Trichoplax adhaerens, UniProt A0A1B1IJP0 1-215)
T1 sequence (looked up): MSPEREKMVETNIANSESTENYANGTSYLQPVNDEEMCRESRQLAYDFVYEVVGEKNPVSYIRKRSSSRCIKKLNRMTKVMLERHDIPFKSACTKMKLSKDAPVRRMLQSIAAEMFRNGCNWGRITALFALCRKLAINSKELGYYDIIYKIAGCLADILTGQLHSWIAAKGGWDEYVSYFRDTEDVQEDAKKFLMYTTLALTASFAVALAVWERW

T2: Flag-tagged Trichoplax adhaerens Bcl-2-like protein 2 (trBcl-2L2) (Trichoplax adhaerens, UniProt A0A1B1IJN9 1-211)
T2 sequence (looked up): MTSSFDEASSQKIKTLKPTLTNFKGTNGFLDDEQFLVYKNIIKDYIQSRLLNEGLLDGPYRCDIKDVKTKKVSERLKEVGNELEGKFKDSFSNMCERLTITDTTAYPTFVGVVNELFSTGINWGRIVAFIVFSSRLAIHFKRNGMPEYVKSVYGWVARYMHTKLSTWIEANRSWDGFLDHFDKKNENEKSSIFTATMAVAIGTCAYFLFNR


Columns and labels:
[1] = molecular target: T1, Flag-tagged Trichoplax adhaerens …; assay: FRET or BRET
[2] = molecular target: T2, Flag-tagged Trichoplax adhaerens …; assay: FRET or BRET

Binder	FRET efficacy [1]	FRET efficacy [2]
EGFP-tagged Trichoplax adhaerens Bak (trBak, trBcl-2L4) (natural protein, UniProt A0A1B1IJN7 1-251, looked up) MSSTITIAESLENGENNDEQEEANTSRSQFRVTRAQVIRRQLSANPAHLPVSEQEVINETSSIFRSFVVESYQAERDGGIIAEEVRSFADQVQSSSNQTITPSSPTSEIGRHLAQLGDSYSVRFQNEFRLMITHLDINPGTAYRTFAGVARRLFRDGISWRRIVTLMAFGYQIAIDVMRSGVQGFLSRICNFIVRFISGEHIANWIARQGGWRAARYEGLASPGWPAIIGVATAAAASVFGVLWLSGYFRE	11.2%	5.45%
EGFP-tagged Trichoplax adhaerens Bax (trBax, trBcl-2L3) (natural protein, UniProt A0A1B1IJP1 1-241, looked up) MADFTYVLITRSISTIFSSSCLIAMAHVKSVTSTPTTTTTTTTQSCPRREENLKEIAAESKKLFLDFIADRSAKDGQDQGCISQLTREHNELQIEPTSPTIQVARTIRQIGDELDSDPHLNGLLHKLHVTSSTAYSTFRRVAMRIFQDGQFNWGRIITLFFFGYRLTIRVLSESPIVEMIISWIARFIYEICSFWIAESGGWDAITQYIQQADWKNKYTLGLIAVGVLVTAFVTWQRYNSS	5.84%	1.97%
